Laboratory results as given in patent US20030059769, “High affinity nucleic acid ligands to lectins” (published 2003).
Substitutions are numbered along the chain they refer to.

B1: PA318 (ssRNA)
RNA: GGGAGACAGAAUAAACGCUCAAAGACCAAGGGACAGCAGCGGGGAAAAACAGAUCACAGCUGUAAGAGGGCUUCGACAGGAGGCUCACAACAGGC
modifications: 2'-NH2 C and U
B2: PA301 (ssRNA)
RNA: GGGAGACAAGAAUAAACGCUCAAACACAAAUCGGGCAGGGACUGGGUUGGGCACGGCAGGGCGCCUUCGACAGGAGGCUCACAACAGGC
modifications: 2'-NH2 C and U
B3: PA315 (ssRNA)
RNA: GGGAGACAAGAAUAAACGCUCAAUAACAAAGCAGCAAAGUACCAGAGGAGAGUUGGCAGGGUUUAGGCAGCUUCGACAGGAGGCUCACAACAGGC
modifications: 2'-NH2 C and U
B4: PA335 (ssRNA)
RNA: GGGAGACAAGAAUAAACGCUCAAUGAUAUACACGUAAGCACUGAACCAGGCUGAGAUCCAUCAGUGCCCAGGUUCGACAGGAGGCUCACAACAGGC
modifications: 2'-NH2 C and U
B5: PF377s1 (ssRNA)
RNA: CUCAACGAGCCAGGAACAUCGACGUCAGCAAACGCGAG
modifications: 2'-F C and U
B6: PF377s1-5'NH2 (ssRNA)
RNA: B5 RNA
modifications: 2'-F C and U, 5' NH2
B7: PF377M5 (ssRNA)
RNA: B5 RNA
modifications: 2'-F C and U; 2'-OMe G 7,9,14 and A 8,15,18,27,31
B8: PF411 (ssRNA)
RNA: GGGAGACAAGAAUAAACGCUCAACAACCCAACCAUCUAGAGCUUCGAACCAUGGUAUACAAGGGAACACAAAAUUCGCGGAGGCUCCAACAGGCGGC
modifications: 2'-F C and U
B9: PF377L1 (ssRNA)
RNA: CUCAACGAGCCAGGACUACGAUCAGCAAACGCGAG
modifications: 2'-F on all C and U
B10: PF377L1 (ssRNA)
RNA: B9 RNA
modifications: 2'-F C and U
B11: PF422 (ssRNA)
RNA: GGGAGACAAGAAUAAACGCUCAACGUCAAGCCAGAAUCCGGAACACGCGAGAAAACAAAUCAACGACCAAUCGAUUCGACAGGAGGCUCACAAAGGC
modifications: 2'-F C and U
B12: PA352 (ssRNA)
RNA: GGGAGACAAGAAUAAACGCUCAAGAUCAUCGCAGUAUCGGAAUCGACCCUCAGUGGGUGACAUGCGGACAAGUUCGACAGGAGGCUCACAACAGGC
modifications: 2'-NH2 C and U
B13: PA353 (ssRNA)
RNA: GGGAGACAAGAAUAAACGCUCAAGUACCGGGAAGGGAUGAACUGGGAUAUGGGAACGGAGGUCAGAGGCACGAUUCGACAGGAGGCUCACAACAGGC
modifications: 2'-NH2 C and U
B14: PA329 (ssRNA)
RNA: GGGAGACAAGAAUAAACGCUCAAGAAGGAUACUUAGGACUACGUGGGAUGGGAUGAAAUGGGAGAACGGGAGUUCGACAGGAGGCUCACAACAGGC
modifications: 2'-NH2 C and U
B15: PA336 (ssRNA)
RNA: GGGAGACAAGAAUAAACGCUCAAGAUCAUAACGAGAGGAGAGGGAGAACUACACGCGCGCGAGGAAAGAGUUCGACAGGAGGCUCACAACAGGC
modifications: 2'-NH2 C and U
B16: PA328 (ssRNA)
RNA: GGGAGACAAGAAUAAACGCUCAAGCAAAAGGCGUAAAUACACCUCCGCAACUGGGAAGAAGACGCAGGGACGGUUCGACAGGAGGCUCACAACAGGC
modifications: 2'-NH2 on all C and U [2'-NH2 on all C and U; N83 in fixed region = A]
B17: PA342 (ssRNA)
RNA: GGGAGACAAGAAUAAACGCUCAACCAACGCGCACCCCGCAGCAAACGAAAUUGGGGAGACAGGUGCAAGACAGUUCGACAGGAGGCUCACAACAGGC
modifications: 2'-NH2 C and U
B18: PA330 (ssRNA)
RNA: GGGAGACAAGAAUAAACGCUCAAAACGCACAAAGUAAGGGACGGGAUGGAUCGCCCUAGGCUGGAAGGGAACUUCGACAGGAGGCUCACAACAGGC
modifications: 2'-NH2 on all C and U
B19: PA338 (ssRNA)
RNA: GGGAGACAAGAAUAAACGCUCAAUCAAGUAAGGAGGAAGGGUCGUGACAGAAAAACGAGCAAAAAACGCGAGUUCGACAGGAGGCUCACAACAGGC
modifications: 2'-NH2 on all C and U
B20: PF387s1 (ssRNA)
RNA: CUCAACGCACCAGGAACAACGAGAACCAUCAGUAAACGCGAG
modifications: 2'-F C and U
B21: PF383s1 (ssRNA)
RNA: B20 RNA with G21A, A36G
modifications: 2'-F C and U
B22: PA341 (ssRNA)
RNA: GGGAGACAAGAAUAAACGCUCAAGCCCCAAACGCAAGCGAGCAUCCGCAACAGGGAAGAAGACAGACGAAUGAUUCGACAGGAGGCUCACAACAGGC
modifications: 2'-NH2 on all C and U
B23: PA341 (ssRNA)
RNA: B22 RNA
modifications: 2'-NH2 C and U
B24: PA477 (ssRNA)
RNA: B22 RNA with C38U
modifications: 2'-NH2 on all C and U [2'-NH2 on all C and U; n18 in fixed region = G]
B25: PF380 (ssRNA)
RNA: GGGAGACAAGAAUAAACGCUCAACGAGCAAAAGUACUCACGGGACCAGGAGAUCAGCAACACGCGAGACGAAAUUCGACAGGAGGCUCACAACAGGC
modifications: 2'-F C and U
B26: PA447 (ssRNA)
RNA: GGGAGACAAGAAUAAACGCUCAAAACAGAACUGAUCGGCGCAGGUUGAUAAAGGGGCAGCGCGAAGAUCACAAUUCGACAGGAGGCUCACAACAGGC
modifications: 2'-NH2 C and U
B27: PA325 (ssRNA)
RNA: GGGAGACAAGAAUAAACGCUCAAACGAGAGCACCAAGGCAACAGAUGCAGAAGAAGUGUGCGCGCGCGAAAUUCGACAGGAGGCUCACAACAGGC
modifications: 2'-NH2 C and U
B28: PF422s1 (ssRNA)
RNA: GAAUCCGGAACACGCGAGAAAACAAAUCAACGACCAAUCGAUUCG
modifications: 2'-F on all C and U
B29: PF422s1 (ssRNA)
RNA: B28 RNA
modifications: 2'-F C and U
B30: PA351 (ssRNA)
RNA: GGGAGACAAGAAUAAACGCUCAAUGAUAGCACAGUGUAUAAGAAAACGCAACACCGCGCGCGGAAAGAGUUCGACAGGAGGCUCACAACAGGC
modifications: 2'-NH2 C and U
B31: PA327 (ssRNA)
RNA: GGGAGACAAGAAUAAACGCUCAAUAAGACAACGAACAGACAGAAGCGAAAAAGGGGCGCCGCAGCAACAACAAAUUCGACAGGAGGCUCACAACAGGC
modifications: 2'-NH2 C and U
B32: PA463 (ssRNA)
RNA: GGGAGACAAGAAUAAACGCUCAAGGGAAACGGAAAGGGACAAGGCGAACAGACGAGAAGUAGACGGAGUAGGAUUCGACAGGAGGCUCACAACAGGC
modifications: 2'-NH2 C and U
B33: PA337 (ssRNA)
RNA: GGGAGACAAGAAUAAACGCUCAAACAGCUACAAGUGGGACAACAGGGUACAGCGGAGAGAAACAUCCAAACAAGUUCGACAGGAGGCUCACAACAGGC
modifications: 2'-NH2 on all C and U
B34: PF381 (ssRNA)
RNA: GGGAGACAAGAAUAAACGCUCAAAGGAUCACACAAACAUCGGUCAAUAAAUAAGUAUUGAUAGCGGGGAUAUUCGACAGGAGGCUCACAACAGGC
modifications: 2'-F C and U
B35: PA320 (ssRNA)
RNA: GGGAGACAAGAAUAAACGCUCAAGAGUAUCACACAAACCGGCACGGACUAAGCAGAAGGAGGUACGGAAGAUUCGACAGGAGGCUCACAACAGGC
modifications: 2'-NH2 C and U
B36: PA319 (ssRNA)
RNA: GGGAGACAAGAAUAAACGCUCAAAGUCGGGGAUAGAAACACACUAAGAAGUGCAUCAGGUAGGAGAUAAUUCGACAGGAGGCUCACAACAGGC
modifications: 2'-NH2 C and U [all C and U 2'-NH2]
B37: PF373s1 (ssRNA)
RNA: CUCAACGAAUCAGUAAACAUAACACCAUGAAACAUAAAUAGCACGCGAG
modifications: 2'-F on all C and U
B38: PF373s1 (ssRNA)
RNA: B37 RNA
modifications: 2'-F C and U
B39: PA354 (ssRNA)
RNA: GGGAGACAAGAAUAAACGCUCAAGCAAUGGAACGCUAGGAGGGAACAUAAGCAGGGCGAGCGGAGUCGAUAGCUUCGACAGGAGGCUCACAACAGGC
modifications: 2'-NH2 C and U

How the values were obtained:
P-selectin (PS-Rg) [1] = molecular target: T1, P-selectin (PS-Rg) (Homo sapiens, UniProt P16109 P16109:42-321); test: filter; 37 C
P-selectin (PS-Rg) [2] = molecular target: T1, P-selectin (PS-Rg); test: inhibition; sialyl-LewisX; conditions: tags: human IgG Fc fusion; chain copies: 2 (stated dimer)
Method: The ability of evolved RNA pools or cloned ligands to inhibit the binding of PS-Rg to sialyl-Lewis^x was tested in competitive ELISA assays (C. Foxall et al., 1992, supra). For these assays, the wells of Corning (25801) 96 well microtiter plates were coated with 100 ng of a sialyl-Lewis^x/BSA conjugate, air dried overnight, washed with 300 μl of PBS(−) and then blocked with 1% BSA in HSMC for 60 min at room temperature. RNA ligands were incubated with PS-Rg in HSMC/1% BSA at room temperature for 15 min. After removal of the blocking solution, 50 μl of PS-Rg (10 nM) or a PS-Rg (10 nM)/RNA ligand mix was added to the coated, blocked wells and incubated at room temperature for 60 minutes. The binding solution was removed, wells were washed with 300 μl of PBS(−) and then probed with HRP conjugated anti-human IgG, at room temperature to quantitate PS-Rg binding. After a 30 minute incubation at room temperature in the dark with OPD peroxidase substrate (Sigma P9187), the extent of PS-Rg binding and percent inhibition was determined from the OD₄₅₀.

P-selectin (PS-Rg) [3] = molecular target: T1, P-selectin (PS-Rg); test: filter; HSMC; conditions: tags: human IgG1 Fc fusion; chain copies: dimer
[4] = tags: human IgG Fc fusion, chain copies: 2 (stated dimer)
[5] = tags: human IgG1 Fc fusion, chain copies: dimer, label: 32P

T1 sequence (P16109 42-321, one chain of several): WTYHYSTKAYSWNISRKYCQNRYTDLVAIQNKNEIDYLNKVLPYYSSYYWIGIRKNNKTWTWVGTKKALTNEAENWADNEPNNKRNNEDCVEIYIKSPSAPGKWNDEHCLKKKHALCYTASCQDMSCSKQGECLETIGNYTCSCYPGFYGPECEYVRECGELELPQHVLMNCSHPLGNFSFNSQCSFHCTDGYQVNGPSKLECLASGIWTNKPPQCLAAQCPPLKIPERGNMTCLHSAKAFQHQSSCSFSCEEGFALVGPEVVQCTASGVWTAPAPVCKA

Binder | Kd (P-selectin (PS-Rg) [1]; [4]) [nM] | IC50 (P-selectin (PS-Rg) [2]) [nM] | other results
B1 | 2 | – | –
B2 | 2.5 | – | –
B3 | 5 | – | –
B4 | 10.5 | – | –
B5 | – | 2 | –
B6 | – | 2 | –
B7 | – | 2 | –
B8 | – | 2 | –
B9 | – | – | Kd (P-selectin (PS-Rg) [3]): 0.22 nM
B10 | – | 4 | –
B11 | – | 3 | –
B12 | 6 | – | –
B13 | 9 | – | –
B14 | 4 | – | –
B15 | 15 | – | –
B16 | – | – | Kd (P-selectin (PS-Rg) [1]; [5]): 3 nM
B17 | 4 | – | –
B18 | – | – | Kd (P-selectin (PS-Rg) [1]; [5]): 0.237 nM
B19 | – | – | Kd (P-selectin (PS-Rg) [1]; [5]): 57 nM
B20 | – | 2 | –

Binder | Kd (P-selectin (PS-Rg) [1]; [4]) [nM] | IC50 (P-selectin (PS-Rg) [2]) [nM] | other results
B21 | – | 25 | –
B22 | – | – | Kd (P-selectin (PS-Rg) [1]; [5]): 0.44 nM
B23 | – | 3 | –
B24 | – | – | Kd (P-selectin (PS-Rg) [1]; [5]): 0.57 nM
B25 | – | 4 | –
B26 | 50 | – | –
B27 | > 10 | – | –
B28 | – | – | Kd (P-selectin (PS-Rg) [3]): 1 nM
B29 | – | 8 | –
B30 | 2 | – | –
B31 | 13.5 | – | –
B32 | 8 | – | –
B33 | – | – | Kd (P-selectin (PS-Rg) [1]; [5]): 4.5 nM
B34 | – | 1 | –
B35 | 4.5 | – | –
B36 | 11 | – | –
B37 | – | – | Kd (P-selectin (PS-Rg) [3]): 0.056 nM
B38 | – | 3 | –
B39 | 5 | – | –
